Results as given in article PMC3422348.

Target: Cdc37 (Cell division cycle protein 37) (human (endogenous in MDA-MB-453 and MDA-MB-231)) (UniProt Q16543)
Assay: co-IP; membrane fractions of MDA-MB-453 and MDA-MB-231 cells immunoprecipitated with anti-Cdc37 (18 h, 4°C, protein G-Sepharose), Western blot with anti-HSP90, anti-HER2, anti-EGFR; cells cultured in control medium or with 200 µg/ml anti-Cdc37 or 200 µg/ml mAb 4C5 for 16 h; densitometry

Sequence of UniProt Q16543 (Q16543 whole entry): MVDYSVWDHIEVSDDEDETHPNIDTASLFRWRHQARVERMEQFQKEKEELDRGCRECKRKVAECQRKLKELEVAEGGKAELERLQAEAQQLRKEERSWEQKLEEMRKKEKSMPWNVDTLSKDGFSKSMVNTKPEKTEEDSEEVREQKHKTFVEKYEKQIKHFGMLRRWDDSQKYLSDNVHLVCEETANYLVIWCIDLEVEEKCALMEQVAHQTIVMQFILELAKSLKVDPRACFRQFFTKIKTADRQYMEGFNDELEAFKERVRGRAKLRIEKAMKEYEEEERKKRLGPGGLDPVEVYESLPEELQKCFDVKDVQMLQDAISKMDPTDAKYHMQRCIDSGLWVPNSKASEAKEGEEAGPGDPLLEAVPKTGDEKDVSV

- percent decrease of the co-precipitate with 200 µg/ml anti-Cdc37 in the medium (MDA-MB 231): 56%
- percent decrease of the co-precipitate with 200 µg/ml anti-Cdc37 in the medium (MDA-MB 453): 33%
- percent decrease of the co-precipitate with 200 µg/ml mAb 4C5 in the medium (MDA-MB 231): 88%
- percent decrease of the co-precipitate with 200 µg/ml mAb 4C5 in the medium (MDA-MB 453): 60%
Substance: HSP90 (from UniProt P07900 1-732) (natural protein)
